Results published in patent US20180298083A1.
Read-outs that look alike come from different tables or passages of the source. One block for each substance: values may come before it.

Legend:
[1] = target: gp120 Resurfaced Stabilized Core (RSC3); assay: ELISA on coated RSC3
[2] = target: 6631.V3.C10 (HIV-1)
[3] = target: CAAN.A2 (HIV-1)
[4] = target: 6631.V3.C10 (HIV-1); remark: listed apart in the source
[5] = target: gp120 of X2088 (HIV-1 strain X2088.c9)
[6] = target: 6631.V3.C10 (HIV-1); remark: listed apart in the source
[7] = target: gp120 of X2088 (HIV-1 strain X2088.c9); remark: listed apart in the source
[8] = target: CAAN.A2 (HIV-1); remark: listed apart in the source
[9] = target: N280A (HIV-1); assay: gp120 capture ELISA
[10] = target: G366A (HIV-1); assay: gp120 capture ELISA
[11] = target: G472A (HIV-1); assay: gp120 capture ELISA
[12] = target: D457A (HIV-1); assay: gp120 capture ELISA
[13] = target: P369A (HIV-1); assay: gp120 capture ELISA
[14] = target: M373A (HIV-1); assay: gp120 capture ELISA
[15] = target: N197T (HIV-1); assay: gp120 capture ELISA
[16] = target: E370A (HIV-1); assay: gp120 capture ELISA
[17] = target: N332A (HIV-1); assay: gp120 capture ELISA
[18] = target: V372A (HIV-1); assay: gp120 capture ELISA
[19] = target: D368A (HIV-1); assay: gp120 capture ELISA
[20] = target: G367A (HIV-1); assay: gp120 capture ELISA
[21] = target: G471A (HIV-1); assay: gp120 capture ELISA
[22] = target: N262A (HIV-1); assay: gp120 capture ELISA
[23] = target: R469A (HIV-1); assay: gp120 capture ELISA
[24] = target: G473A (HIV-1); assay: gp120 capture ELISA
[25] = target: I371A (HIV-1); assay: gp120 capture ELISA
[26] = target: S365A (HIV-1); assay: gp120 capture ELISA
[27] = target: K282A (HIV-1); assay: gp120 capture ELISA
[28] = target: R476A (HIV-1); assay: gp120 capture ELISA
[29] = target: T283A (HIV-1); assay: gp120 capture ELISA
[30] = target: D167N (HIV-1); assay: gp120 capture ELISA
[31] = target: I467A (HIV-1); assay: gp120 capture ELISA
[32] = target: D279A (HIV-1); assay: gp120 capture ELISA
[33] = target: D474A (HIV-1); assay: gp120 capture ELISA
[34] = target: M475A (HIV-1); assay: gp120 capture ELISA
[35] = target: monomeric gp120^JRCSF (HIV-1 strain JRCSF) (UniProt P20871); assay: gp120 capture ELISA
[36] = target: Sm, Smith antigen; assay: Luminex AtheNA Multi-Lyte ANA test
[37] = target: CentrB, centromere B; assay: Luminex AtheNA Multi-Lyte ANA test
[38] = target: SSB, Sjogren syndrome antigen B (Homo sapiens (Human)) (UniProt P05455); assay: Luminex AtheNA Multi-Lyte ANA test
[39] = target: Jo1 antigen; assay: Luminex AtheNA Multi-Lyte ANA test
[40] = target: Histone; assay: Luminex AtheNA Multi-Lyte ANA test
[41] = target: RNP, ribonucleoprotein; assay: Luminex AtheNA Multi-Lyte ANA test
[42] = target: SSA, Sjogren's syndrome antigen A; assay: Luminex AtheNA Multi-Lyte ANA test
[43] = target: Scl 70, scleroderma 70; assay: Luminex AtheNA Multi-Lyte ANA test
[44] = target: T250-4 (HIV-1)

Chain of CentrB, centromere B (P07199 2-599): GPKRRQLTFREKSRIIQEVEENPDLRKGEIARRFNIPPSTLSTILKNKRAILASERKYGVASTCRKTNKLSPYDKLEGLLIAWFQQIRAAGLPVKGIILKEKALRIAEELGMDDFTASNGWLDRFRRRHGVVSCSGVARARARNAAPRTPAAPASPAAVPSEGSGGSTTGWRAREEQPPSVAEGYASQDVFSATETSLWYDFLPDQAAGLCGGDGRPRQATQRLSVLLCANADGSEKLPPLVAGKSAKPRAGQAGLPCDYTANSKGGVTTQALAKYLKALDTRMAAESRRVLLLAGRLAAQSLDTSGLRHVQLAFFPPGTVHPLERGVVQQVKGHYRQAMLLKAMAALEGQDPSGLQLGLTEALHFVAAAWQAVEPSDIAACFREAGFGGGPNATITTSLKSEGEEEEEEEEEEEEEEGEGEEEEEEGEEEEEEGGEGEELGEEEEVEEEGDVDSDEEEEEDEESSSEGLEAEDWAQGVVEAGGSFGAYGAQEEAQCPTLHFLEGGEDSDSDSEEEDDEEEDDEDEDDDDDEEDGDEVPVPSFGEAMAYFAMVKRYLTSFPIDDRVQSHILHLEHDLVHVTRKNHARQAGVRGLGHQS
Chain of SSB, Sjogren syndrome antigen B (Homo sapiens (Human)) (P05455 whole entry): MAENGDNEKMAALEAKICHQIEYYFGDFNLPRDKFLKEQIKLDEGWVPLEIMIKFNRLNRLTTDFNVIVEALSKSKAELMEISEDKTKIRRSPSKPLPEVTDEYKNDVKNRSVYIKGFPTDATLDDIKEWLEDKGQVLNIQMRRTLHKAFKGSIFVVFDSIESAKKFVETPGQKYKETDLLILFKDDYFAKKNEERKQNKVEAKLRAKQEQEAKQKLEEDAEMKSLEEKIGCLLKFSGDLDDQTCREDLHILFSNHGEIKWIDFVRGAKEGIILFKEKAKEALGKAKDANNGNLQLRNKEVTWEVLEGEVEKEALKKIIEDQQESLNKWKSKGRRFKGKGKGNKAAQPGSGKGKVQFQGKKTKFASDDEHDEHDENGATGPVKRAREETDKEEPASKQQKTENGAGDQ

Substance: b12 (antibody)
EC50 (read off the curve) [1]: 0.01 µg/mL

Substance: N6 with CDRH1 of VRC27 (antibody)
neutralisation IC50 [2]: 0.122 µg/mL

Substance: VRC01 ARP60-62GGGHC (antibody)
neutralisation IC50 [3]: 3.23 µg/mL

Substance: N6 with CDRL3 of VRC01 (antibody)
neutralisation IC50 [4]: 0.139 µg/mL
neutralisation IC50 [5]: 0.125 µg/mL

Substance: N6 GGG60-62AHS VRC27 (antibody)
neutralisation IC50 [2]: 0.089 µg/mL

Substance: N6 with CDRL1 of VRC01 (antibody)
neutralisation IC50 [4]: > 50 µg/mL
neutralisation IC50 [5]: > 50 µg/mL

Substance: N6 heavy chain with 12A21 light chain (antibody)
neutralisation IC50 [6]: 3.11 µg/mL
neutralisation IC50 [7]: 0.314 µg/mL
neutralisation IC50 [8]: 3.71 µg/mL

Substance: VRC-PG04 (antibody)
Binding affinity relative to WT (%) [9]: 12%
Binding affinity relative to WT (%) [10]: 17%
Binding affinity relative to WT (%) [11]: 38%
Binding affinity relative to WT (%) [12]: 0%
Binding affinity relative to WT (%) [13]: 44%
Binding affinity relative to WT (%) [14]: 44%
Binding affinity relative to WT (%) [15]: 39%
Binding affinity relative to WT (%) [16]: 20%
Binding affinity relative to WT (%) [17]: 31%
Binding affinity relative to WT (%) [18]: 15%
Binding affinity relative to WT (%) [19]: 12%
Binding affinity relative to WT (%) [20]: 19%
Binding affinity relative to WT (%) [21]: 64%
Binding affinity relative to WT (%) [22]: 14%
Binding affinity relative to WT (%) [23]: 6%
Binding affinity relative to WT (%) [24]: 34%
Binding affinity relative to WT (%) [25]: 21%
Binding affinity relative to WT (%) [26]: 34%
Binding affinity relative to WT (%) [27]: 12%
Binding affinity relative to WT (%) [28]: 84%
Binding affinity relative to WT (%) [29]: 83%
Binding affinity relative to WT (%) [30]: 42%
Binding affinity relative to WT (%) [31]: 40%
Binding affinity relative to WT (%) [32]: 247%
Binding affinity relative to WT (%) [33]: 0%
Binding affinity relative to WT (%) [34]: 90%

Substance: VRC01 N6CDRH3 (antibody)
neutralisation IC50 [3]: 2.23 µg/mL

Substance: CD4-Ig (from UniProt P01730 26-203) (Fc fusion; other documents disagree on this pair)
Binding affinity relative to WT (%) [35]: 100%

Substance: VRC01 G54YHC (antibody)
neutralisation IC50 [3]: 1.31 µg/mL

Luminex reactivity (unit not given) [36]: 2.3
Luminex reactivity (unit not given) [37]: 2
Luminex reactivity (unit not given) [38]: 4.8
Luminex reactivity (unit not given) [39]: 2.5
Luminex reactivity (unit not given) [40]: 3
Luminex reactivity (unit not given) [41]: 1.3
Luminex reactivity (unit not given) [42]: 3.3
Luminex reactivity (unit not given) [43]: 2
Substance: synagis (antibody)

Substance: 12A21 heavy chain with N6 light chain (antibody)
neutralisation IC50 [8]: 11 µg/mL

Substance: 12A21 (antibody)
neutralisation IC50 [44]: > 50 µg/mL
neutralisation IC50 [6]: 2.37 µg/mL
neutralisation IC50 [7]: > 50 µg/mL
neutralisation IC50 [8]: 0.539 µg/mL
Binding affinity relative to WT (%) [9]: 174%
Binding affinity relative to WT (%) [10]: 6%
Binding affinity relative to WT (%) [35]: 100%
Binding affinity relative to WT (%) [11]: 97%
Binding affinity relative to WT (%) [12]: 23%
Binding affinity relative to WT (%) [13]: 122%
Binding affinity relative to WT (%) [14]: 63%
Binding affinity relative to WT (%) [15]: 131%
Binding affinity relative to WT (%) [16]: 16%
Binding affinity relative to WT (%) [17]: 206%
Binding affinity relative to WT (%) [18]: 36%
Binding affinity relative to WT (%) [19]: 30%
Binding affinity relative to WT (%) [20]: 2%
Binding affinity relative to WT (%) [21]: 162%
Binding affinity relative to WT (%) [22]: 167%
Binding affinity relative to WT (%) [23]: 66%
Binding affinity relative to WT (%) [24]: 53%
Binding affinity relative to WT (%) [25]: 17%
Binding affinity relative to WT (%) [26]: 454%
Binding affinity relative to WT (%) [27]: 29%
Binding affinity relative to WT (%) [28]: 73%
Binding affinity relative to WT (%) [29]: 68%
Binding affinity relative to WT (%) [30]: 108%
Binding affinity relative to WT (%) [31]: 49%
Binding affinity relative to WT (%) [32]: 188%
Binding affinity relative to WT (%) [33]: 19%
Binding affinity relative to WT (%) [34]: 76%
